For twelve sequences, protein production results are on record in a protein production outcome set (Wang et al. 2014).

The nature of this data set: label from the status in PepcDB records.

With “MFEAARFGDEISHTSALGGFLIGAALGIALVATVAIATFTCGFGVALLAGLAAGIGGSLLTAAGEAIGSMFSSPSGTITTASPNVFINSRKAARVEKSIGACDKHPGPVQIAEGSTNVFINSVAAARKGDKLTCGATISGGSDNVIIGGGTYRYLPVDDEVPEWLRTTVDVLMAIAGAAGGIAQLIKAGTQAGMKAVMPCALKFTAGFVAGEVASRYVVEPVARKAIGGLVGNPVDLTTGRKLIPDEIDFSLPGLMPIEWSRFYASDLTVDSVLGRGWVLPWEQSLRRQGAFIYLTDNQGREVPFVTLQPGQRIYNPHEQVYLVCTEGGHYILQTLDNLFFYFGEVPDTNTEVPLQRIENVLGHFLHFTRTPDGTLTDISATGGTRVHLHYDNPLGRLTDIKRVVNNEAVETLTQYRYDEHGQLSAVINRNGDTVRSFSYADGLMVTHSNALGLGCHYRWQTLGDKPRVVEHWTSDGEHYHFRYDLDSRTSWATDVLGRELEVQYNADHRVVASRDYGGERYAIELDEHGNMVGLTLPDGNRLQFKYDEFSRLLEETDPLGRKTQYEYHHLTTLVTQVSYPDGSTWRARFDDKGNLLAEFDALGQMTEYLNSDDGLPHTIIDATYKSKYLWWNTLAQVERYQDCSGKSTYYRYDERQHLVAVTDALNQTTTLARKPDGEVLRISHPDGTTESFTYNVYGQVLSHTDGKGQTTRLMRTARGLPSSRQDAKGQRVRYEYDKAMRLTALVNENNATYSFAYDASDRLSEEVRVDNLTRRFSYDVGGHLTRLDEIGYGENAERPERHTLFERDAIGRLIAKLNSDAQQRFTYDDGDRLLSIERQPTGIGKQLGITEEKLEYAYDLLGRLTKEISPDGTLGYEYDPLSNLTTLTLPDGRKVNHLYYGSGHLHQLNLDGQVISDMERDDLHREVYRTQGKLTSCFGYDAMGRKAWQFASTLPADKLSQVHNTGINTSLLVEHAYNPIHRRYQYDPAGELVRTLDKLRGEIKYEYEANGQLRSRDTGSLIGSEEFRYDPAANRLDFNARQFDKVKDNRIKQWRDQEYRYDPWGNLIEKRSGHSKLQHFSYDCENRLVRAETLVNGKLESQGEYRYDSLGRRIAKQAEINGEVEQKRFLWQGLRMLREETPGQSILYLYEPGSYAPLARVDQVEGEGQKVYYFHTDQIGTPLELTDSEGEIVWQATYRSWGTIETLSIKEVDQNLRFQGQYFDAETGLHYNTFRYYYSEVGRYVTQDPIGLDGGLNLYRYGQNPAGWIDPWGWECWSTARKNYWKAEAKAPTRAYSPTNLVRMAEGKAPKMTVEVISRKTDKISIREYALELHHNDIPQRVGGAGVHDSSNLLALTPWEHEAVDQFRHVGSDLIRVIKGVDVW”, the protein production entry is listed as “failed”. With “MFENFSPSTMLAIKKYAYWLWLLLALSMPFNYWMAQDSAHPAFWAFSLVIAVFGIGPLLDMLFGRDPANPDEETQTPQLLGQGYYVLLTLATVPVLIGTLVWAAGVFVAFQEWGWLGRLGWILSMGTVMGAVGIVVAHELIHKDSALEQAAGGILLAAVCYAGFKVEHVRGHHVHVSTPEDASSARFGQSVYQFLPHAYKYNFLNAWRLEAVRLRKKGLPVFGWQNELIWWYLLSLALLVGFGWAFGWLGMVFFLGQAFVAVTLLEIINYVEHYGLHRRKGEDGRYERTNHTHSWNSNFVFTNLVLFHLQRHSDHHAFAKRPYQVLRHYDDSPQMPSGYAGMVVLALIPPLWRAVMDPKVRAYYAGEEFQLTAEQSERPAAS”, the protein production result was “failed”. As to “MFERFTDRARRVIVLAQEEARMLNHNYIGTEHILLGLIHEGEGVAAKALESMGISLDAVRQEVEEIIGQGSQPTTGHIPFTPRAKKVLELSLREGLQMGHKYIGTEFLLLGLIREGEGVAAQVLVKLGADLPRVRQQVIQLLS”, the protein production entry is “not failed”. Consider “MFEVTVSKRLLKSGIIVSAMTLISRVLGLVRDVVVANLMGAGASADVFFFANRIPNFLRRLFAEGAFSQAFVPVLTEYHASGDINKTRDLIARASGTLGVLVTIVTLIGVLGSGAVTALFGAGWFLDWLNGGPAAGKFELASLLLKITFPYLWFITFVALSGAILNTLGKFAVSSFTPVFLNVMMILCAWYLSPNLEQPEVGLAIGVFLGGLVQFLFQLPFLIKAGVLVRPKWGWKDPGVVKIRTLMIPALFGVSVSQINLLFDSFVASFLQTGSISWLYYSDRLLEFPLGLFGIAIATVILPALSRKHVDAHSDGFAHTMDWGIRMVTFLGIPAMLGLMVLAKPMLMVLFMRGEFTPSDVEQASYSLLAYSSGLLSFMLIKVLAPGYYSRQDTKTPVRYGIIAMVSNIVLNAIFAWFYGYVGLAVATSMSAFLNMALLYRGLHLQGVYHLTRKTVWFVARLAMAGAVMTGALLWQLDTMATWLSWGISQRALTLTGLIGLGVASYLAILLLLGVRLKDLKAATE”, for which the protein production result is “failed”. “MFEYRCSSIDWKPSPVVALATSADGSQVAAAREDGSLELWLVSPGASSWHCQLIIHGDPKSRISHLAWFGTGSKGSSSARLFSSSIDGSISEWDLFDLKQKVVLDSIGFSIWQIALAPISIEAESKEAKLIQNGYLSEKSDDEEESGVEDDSELDELDEKVEALDRHLAAACDDGCVRIYYISESDKLTYYRSLPRVTGRALSVTWSADAQRIFSGSSDGLIRCWDANLCHEVYRITVGLGGLGNGSELCIWSLLSLRYGVLVSGDSTGSVQFWDSQHGTLLQAHSNHKGDVNALAASPSHNRVFSAGADGQVILYKLSGGTSRSQDFKPSSAQKWDYIGCVRAHTHDIRALTVAVPISWEGSIPDRNAKVTSPKQRRKEPAGFSYHKWAHLGVPMLISAGDDAKLYAYSVQEFTKFPPHDICPAPQRVPMQMVHNTVFNQTSLLLVQDSCSLDILRIHISNDSSGRVSTKPLVRVKSKDARKIICSAISNTGSLFAYSDQVRPSLFELKKNKIGKNPWSANRKRLPNLPFAHSMVFSCDCSRLIIAGHDRRIYIVDVGSMELLHSFTPRQEGQEGESPPHEPPITKLYTSSNDDWLAAINCFGDIYVFNLETQRQHWFISRLDGASVAAAGFHPRDNNVIVISTSSNQVFALDVEARELSKWSLLQTFCLPKSYQNFPGEVVGLSFSPSPCSSSVIIYSSRAKCLIEFGKPAEQDEDTDTPCNLSEKLEGKLASISMKLGNGAQKRRLEEYQKESKSNKRKKFEMVTSKHPVLYLRHLSKSAILVIEKPWMEVIKNLDTQPVHRHIFGT”: the protein production result was “failed”.

Consider “MFFNKKNNQDELKKLAATEAAKSITTEITLGVGTGSTVGFLIEELVNYRDKIKTVVSSSEDSTRKLKALGFDVVDLNYAGEIDLYIDGADECNNHKELIKGGGAALTREKICVAAAKKFICIIDESKKVNTLGNFPLPIEVIPMARSYIARQIVKLGGQPVYREQTITDNGNVILDVYNLKIDNPLKLETELNQITGVVTNGIFALKPADTVIMATKDSNIVVL”, for which the protein production entry is on record as “not failed”. As for “MFGLSKRAITILFGLLALAFALGAILLFTPQAGQQTRGKPVLWVNGKALYELDLLRLQGNDPLYAASPEGLLKTLVDTYFLEQVILTEALKQDAARVRVSSAEVRQEVNRIREQFGLKDKAAYEQFLNQVGYTDAQLRAEVKTQLQIQKRLEQIRSGAKPTEEEVRFYYEVFKENYRTEPRVKARQIVVDDKALAEELAAKAKAGEDFAALARQHSKVGAEQGGALGAGPGEAEPKPVTQVVFPTEVGEAVFALKGPGVVGPIAAGGRYYIVKVEEYLPSTLPAFEEVKDRVAQDAERAKGNGVLEAYLEELRKKAQVRFAEDNPYAYQNPPVAKVNEKEILLSEVLQPVFSNQQTVALVQQGLGELAVQFFLPQTLENLIDRELLVEAARKSGKPFIGSKAEIAEAYLRYETRDVTASEEEARAFYSENPALFTVPASAKVIGVNFKEEAQAKAFRAAALRGGDLEALAKAQEGTVTDYGTVNPNQLPAVLDRLVFKITETFPQGPLGEVSEVIKMEDGSYTVLLISDRKAEELKGFAQVAEEARQGAVNRKRSEKAQALIQALREEAKIENRLAEVLQALTPKTPSQDQPNSQEQPQPEEAPANNP”, the protein production result is “failed”. “MFGPFKPAPHIAELPAEKIDSTYKRLRWQVFAGIFFGYAAYYFVRANFDLAQPGLIQAGLYSKAELGVIGSAAGLAYGLSKFVMAGMSDRSNPRVFLPFGLLLSGLCMTLMGLFPWATSGIAIMWVMIFLNGWFQGMGWPPCGRTMVHWWSKSERGTIVSIWNTAHNIGGMVPGAMVLLASAIFFSTHGIEAQAKDVWQQSLYFPGIAAMIFAIPVYFVMRDTPQSCGLPSIEKWRNDYPDDYNEKTYENDLTAKEIFVTYVLKNKLLWYIAIANVFVYLIRYGVLKWSPVYLSEVKHFNIKGTAWAYTIYELAAVPGTLLCGWVSDKVFKGKRGLTGFIFMILTTAAVVAYWMNPATPEAELANYSAWYENPYQLTDFVLMTLIGFLIYGPVMLIGLHALELAPKKAAGTAAGFTGLFGYLGGTVSASAVIGWAAQHYGWDGGFYVMIGGGVLAVLLLLIVMVEEGKHKAKLGDTYGTK”: the protein production result is “failed”. Consider “MFIMQPEDTMTLIHDIILASWDILLEAAPYVLFGFFVAGLLKAYVPASFVARHLGRGHVGPVFKAALFGIPLPLCSCGVIPAAAGLRQQGASKGATTSFLIATPETGVDSMAVTWALLDPVMTVARPFAALLTSVAAGLMVDLFPERKRGESEISPPVMSPSRDAALHDGPTTLPAPVIAPVLHGAAGIAAAGSVSLGPIREHAACTCSGHASVAASACCGTSHSVSAPSGASCGCGSAAHAHSGTGCCGHDTPIGQVSGGFSGVVERFRGGMRFAFGELVADIGGWLLLGVVLAAVITILIPDDLFSGTFASGIGGILLMMVVGIPLYVCATASTPIAAAFALKGISPGAALVFLLAGPATNVATITVVARMLGRKAAVIYVAVIGVMSVALGLAVNMLYGWLGMGVTGWVQGSADAEPGMLSAVAAVVLLLLVLYQWLPALVARLRGEAHPAGCGCGH”, for which the protein production result was “failed”. The entry for “MFITFEGIDGSGKTTQSHLLAEYLSEIYGVNNVVLTREPGGTLLNESVRNLLFKAQGLDSLSELLFFIAMRREHFVKIIKPSLMQKKIVICDRFIDSTIAYQGYGQGIDCSLIDQLNDLVIDVYPDITFIIDVDINESLSRSCKNGYEFADMEFYYRVRDGFYDIAKKNPHRCHVITDKSETYDIDDINFVHLEVIKVLQMV” is “not failed”; for “MFIYGSDRLGGKMDINGFIEELDSLYTERRINDVEPFFNESIEQAKKENDLAAQFTILNEMMGFFRDTSQFEKSIKACNDCIELMKKMGIEGTVDYATSLQNVANAYRAAGKLAESLEVYKEVFSIYNENIPSDDYRMASLNNNIALLYQEMNDFPMAVQHLKKALSIIEKIEGMDIEVATTYTNLAASLIEINQASQAEDYLKKALEIFDRDEVKNFHYSGALCAMASVKCSLNQYEEAAKLYEKALPEIEANMGRGSAYNITKENLAKVFDKIKEEKKELTGIELAKSFYEEYGKDMIHNNFSEYEDKIAVGFVGEGSERFGFDDVYSRDHDFGPGFCMWITEDVYEKIGEKLQDEYNKLPKSYKGITRVDTIMAEGRVGVCVVEDFYKKYTGSGDGNLTLEQWINLEDYKIATVTNGEVFRDDLGYFSKIRRKFENQPFQARLVKLARQLGAMAQTGQSNYERAMARKDYVTAQICISDFMKETMKCVYILNNKFAPYYKWLFKGVSRLDGTEKIVSLLEKLSQLPAQKNAWDGYLYDNTKFNEKDEKAIIMEEIAKIIIDKLLELKLIKNRNSNFLNDYVRPIMDLAEGKVEMFDREKTIDKIVKLEFEAFDKVQNVGGRASCQNNWPFFYVMRKSQYMTWTDEMLECICNLWEENKAKGWNMITEKYGRMMEHTSPEEYKKIKDNFPEKSERTIAIVNQIAQIQVDWMKDFAKSYPKLASNARDITSDADQIDNTSYETYLKGELLTYSEELLKLYAQFIVNLAREGKNLAYMTIENTAHLQGYATLEAAESSIR” it is “failed”; for “MFKGLRYLTFVFGGLLGILLAYGFGQVVELELSKFAVISIYSIFAIIFGIIFYLLFPVILKKLTVNFENMIKKAQKTPTSDIVTAIIGLIVGLIIAFLISLPISNIKFPVIGNLLSATITIFIYCALGFIGIKIAVDKKEEILKFKLFSREKSFKKGHVYPKILDTSVIIDGRIYDIIKTGFLEGPIIIAMFMVKELQYIADSEDPNRRQRGRRGLDILDLLQNEKNIEIKIVDKDYKNIKEVDHKLLKLTEDYHGKLITNDYNLNKVASLQKISILNINELALAVKPVVIQGEKLIVEVINRGKEPEQGLGYLSDGTMIVVEDGKDYIGQTIETTVTSILQTPAGKMIFTRKNLK” it is “failed”.
